{"source": "patent US20040086512A1", "biological_target": "GST-Vif fusion protein (HIV-1 (HIV-1NL4-3)) (UniProt P12504)", "sequence (P12504 whole entry, the tested form may be a part)": "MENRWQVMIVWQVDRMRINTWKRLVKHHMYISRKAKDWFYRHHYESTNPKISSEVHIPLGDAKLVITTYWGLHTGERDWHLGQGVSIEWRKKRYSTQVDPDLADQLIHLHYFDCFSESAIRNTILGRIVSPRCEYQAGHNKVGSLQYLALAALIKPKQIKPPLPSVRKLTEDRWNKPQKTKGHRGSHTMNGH", "experiment": "Vif-Vif binding assay (GST pull-down) without peptide, set as 100%"}
{"substance": "in vitro translated ^35S-labeled HIV-1NL4-3 Vif protein, P12504 1-192 (other; ^35S-labeled (in vitro translation in the presence of ^35S-methionine); other documents disagree on this pair)", "values": [{"measurement": "^35S-Vif binds with GST-Vif (%)", "value": 100, "unit": "%"}]}
